The source of these data is IntAct's records for PubMed 18273060.

First the molecules themselves.
B1: Growth factor receptor-bound protein 7 (Mus musculus), Q03160 (parent)
chain: MELDLSPTHLSSSPEDVCPTPATPPETPPPPDNPPPGDVKRSQPLPIPSSRKLREEEFQATSLPSIPNPFPELCSPPSQKPILGGSSGARGLLPRDSSRLCVVKVYSEDGACRSVEVAAGATARHVCEMLVQRAHALSDESWGLVESHPYLALERGLEDHEFVVEVQEAWPVGGDSRFIFRKNFAKYELFKSPPHTLFPEKMVSSCLDAQTGISHEDLIQNFLNAGSFPEIQGFLQLRGSGRGSGRKLWKRFFCFLRRSGLYYSTKGTSKDPRHLQYVADVNESNVYVVTQGRKLYGMPTDFGFCVKPNKLRNGHKGLHIFCSEDEQSRTCWLAAFRLFKYGVQLYKNYQQAQSRHLRLSYLGSPPLRSVSDNTLVAMDFSGHAGRVIDNPREALSAAMEEAQAWRKKTNHRLSLPTTCSGSSLSAAIHRTQPWFHGRISREESQRLIGQQGLVDGVFLVRESQRNPQGFVLSLCHLQKVKHYLILPSEDEGCLYFSMDEGQTRFTDLLQLVEFHQLNRGILPCLLRHCCARVAL

This test covers variants of B1. The conditions noted are these: with elav1_mouse Elavl1, P70372.
elav1_mouse Elavl1, P70372, sequence (P70372 whole entry): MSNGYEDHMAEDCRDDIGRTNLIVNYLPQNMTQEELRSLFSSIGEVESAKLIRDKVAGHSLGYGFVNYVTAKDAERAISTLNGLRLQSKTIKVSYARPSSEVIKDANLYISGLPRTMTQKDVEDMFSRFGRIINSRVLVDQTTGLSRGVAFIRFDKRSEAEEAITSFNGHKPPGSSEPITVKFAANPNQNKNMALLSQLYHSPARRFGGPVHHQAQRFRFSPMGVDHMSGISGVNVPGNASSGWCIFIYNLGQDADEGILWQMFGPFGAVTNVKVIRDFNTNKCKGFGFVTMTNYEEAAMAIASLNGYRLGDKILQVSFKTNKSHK
As to MELDLSPTHLSSSPEDVCPTPATPPETPPPPDNPPPGDVKRSQPLPIPSSRKLREEEFQATSLPSIPNPFPELCSPPSQKPILGGSSGARGLLPRDSSRLCVVKVYSEDGACRSVEVAAGATARHVCEMLVQRAHALSDESWGLVESHPYLALERGLEDHEFVVEVQEAWPVGGDSRFIFRKNFAKYELFKSPPHTLFPEKMVSSCLDAQTGISHEDLIQNFLNAGSFPEIQGFLQLRGSGRGSGRKLWKRFFCFLRRSGLYYSTKGTSKDPRHLQYVADVNESNVYVVTQGRKLYGMPTDFGFCVKPNKLRNGHKGLHIFCSEDEQSRTCWLAAFRLFKYGVQLYKNYQQAQSRHLRLSYLGSPPLRSVSDNTLVAMDFSGHAGRVIDNPREALSAAMEEAQAWRKKTNHRLSLPTTCSGSSLSAAIHRTQPWFHGRISREESQRLIGQQGLVDGVFLVRESQRNPQGFVLSLCHLQKVKHYLILPSEDEGCLFFSMDEGQTRFTDLLQLVEFHQLNRGILPCLLRHCCARVAL [Y495F], the “effect of a mutation on the interaction” value is recorded as “increasing interaction”.
